For one substance, ABC (antibody binding capacity) and MFI (arbitrary units) results are on record in patent publication US20140322726A1.

Assay [1] deals with endogenous human asparagine synthetase (ASNS) in leukemia cells (human) (UniProt P08243). As to the kind of experiment: flow cytometry with QIFIKIT calibration beads, MOLT-4 cells, control antibody at 3 ug/ml.
The target is the same in assay [2]. As to the kind of experiment: flow cytometry on fixed, permeabilised K562 cells (high ASNS), control antibody at 3 ug/ml.
Assay [3] has the same target. Kind of assay: flow cytometry with QIFIKIT calibration beads, K562 cells, control antibody at 3 ug/ml.
Assay [4] has the same target. As to the kind of experiment: flow cytometry on fixed, permeabilised MOLT-4 cells (extremely low ASNS), control antibody at 3 ug/ml.

Sequence of UniProt P08243 (P08243 2-561): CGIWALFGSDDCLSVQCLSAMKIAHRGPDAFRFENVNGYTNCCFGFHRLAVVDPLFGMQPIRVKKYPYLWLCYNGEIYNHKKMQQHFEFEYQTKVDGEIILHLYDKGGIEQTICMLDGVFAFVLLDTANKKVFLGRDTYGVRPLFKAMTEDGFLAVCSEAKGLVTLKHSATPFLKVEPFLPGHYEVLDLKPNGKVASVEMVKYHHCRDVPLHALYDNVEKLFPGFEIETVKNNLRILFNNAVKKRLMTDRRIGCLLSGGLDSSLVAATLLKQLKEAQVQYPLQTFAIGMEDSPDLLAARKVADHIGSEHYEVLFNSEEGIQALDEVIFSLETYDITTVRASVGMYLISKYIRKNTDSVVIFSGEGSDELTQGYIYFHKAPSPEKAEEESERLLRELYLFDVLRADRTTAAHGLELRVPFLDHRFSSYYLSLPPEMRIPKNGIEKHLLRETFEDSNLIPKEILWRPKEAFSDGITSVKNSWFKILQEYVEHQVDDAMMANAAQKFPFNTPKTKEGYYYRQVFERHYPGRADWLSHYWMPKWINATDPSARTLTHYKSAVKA

As for “control mouse IgG (3423, 2AHB12; Institute of Immunology) (antibody)”, the ABC (antibody binding capacity) came out at 631 units/cell in assay [1] and 874 units/cell in assay [3]. Moreover, the values for the MFI (arbitrary units) in assay [2] and in assay [4] were 4.56 and 3.17, respectively.
